Test results from article PMC3711442 (Nucleic Acids Research, 2013).
Numbering of substitutions follows the chain as printed. Numbers in names are those of the source.

T1: GST-BsUDG S189A (Bacillus subtilis, UniProt P39615 1-225, S189A)
T1 sequence: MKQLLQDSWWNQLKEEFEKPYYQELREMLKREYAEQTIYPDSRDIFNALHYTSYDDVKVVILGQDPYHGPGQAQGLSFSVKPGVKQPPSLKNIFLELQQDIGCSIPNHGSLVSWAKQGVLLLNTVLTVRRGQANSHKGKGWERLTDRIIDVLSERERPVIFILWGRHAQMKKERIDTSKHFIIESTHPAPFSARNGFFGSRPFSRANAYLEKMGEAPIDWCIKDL

T2: GST-BsUDG R194S (Bacillus subtilis, UniProt P39615 1-225, R194S)
T2 sequence: T1 sequence with A189S, R194S

T3: GST-BsUDG, wild type (Bacillus subtilis, UniProt P39615 1-225)
T3 sequence: T1 sequence with A189S

B1: phage ϕ29 protein p56, wild type (natural protein, Bacillus subtilis phage ϕ29)
chain: MVQNDFVDSYDVTMLLQDDDGKQYYEYHKGLSLSDFEVLYGNTADEIIKLRLDKVL
B2: phage ϕ29 protein p56 D45R (natural protein, Bacillus subtilis phage ϕ29)
chain: B1 chain with D45R
B3: phage ϕ29 protein p56 D45S (natural protein, Bacillus subtilis phage ϕ29)
chain: B1 chain with D45S
B4: phage ϕ29 protein p56 H28K (natural protein, Bacillus subtilis phage ϕ29)
chain: B1 chain with H28K
B5: phage ϕ29 protein p56 N42R (natural protein, Bacillus subtilis phage ϕ29)
chain: B1 chain with N42R
B6: phage ϕ29 protein p56 V38E (natural protein, Bacillus subtilis phage ϕ29)
chain: B1 chain with V38E

How the values were obtained:
Assay in all cases: pull-down
[1] = target: T1, GST-BsUDG S189A
[2] = target: T2, GST-BsUDG R194S
[3] = target: T3, GST-BsUDG, wild type

Binder	complexes formed relative to wild-type p56 [3]	other results
B1	–	reduction in p56 binding relative to wild-type GST-BsUDG [1]: 84%; reduction in p56 binding relative to wild-type GST-BsUDG [2]: 75%
B2	< 10%	–
B3	–	complex formation relative to wild-type p56 [3]: ~75%
B4	< 10%	–
B5	< 10%	–
B6	< 10%	–
